# Measurements published in paper PMC5828407 (2018).
# B1: peptide F4ab 148–160 [modified: FITC-Ahx on the N-terminus; FITC-Ahx on the N-terminus] [Escherichia coli] / porcine aminopeptidase N (APN), His-tagged whole protein [porcine] (parent complex)
# chain 1: NASYAGVFGKGGV
# chain 2: MAKGFYISKALGILGILLGVAAVATIIALSVVYAQEKNKNAEHVPQAPTSPTITTTAAITLDQSKPWNRYRLPTTLLPDSYNVTLRPYLTPNADGLYIFKGKSIVRLLCQEPTDVIIIHSKKLNYTTQGHMVVLRGVGDSQVPEIDRTELVELTEYLVVHLKGSLQPGHMYEMESEFQGELADDLAGFYRSEYMEGNVKKVLATTQMQSTDARKSFPCFDEPAMKATFNITLIHPNNLTALSNMPPKGSSTPLAEDPNWSVTEFETTPVMSTYLLAYIVSEFQSVNETAQNGVLIRIWARPNAIAEGHGMYALNVTGPILNFFANHYNTSYPLPKSDQIALPDFNAGAMENWGLVTYRENALLFDPQSSSISNKERVVTVIAHELAHQWFGNLVTLAWWNDLWLNEGFASYVEYLGADHAEPTWNLKDLIVPGDVYRVMAVDALASSHPLTTPAEEVNTPAQISEMFDSISYSKGASVIRMLSNFLTEDLFKEGLASYLHAFAYQNTTYLDLWEHLQKAVDAQTSIRLPDTVRAIMDRWTLQMGFPVITVDTKTGNISQKHFLLDSESNVTRSSAFDYLWIVPISSIKNGVMQDHYWLRDVSQAQNDLFKTASDDWVLLNVNVTGYFQVNYDEDNWRMIQHQLQTNLSVIPVINRAQVIYDSFNLATAHMVPVTLALDNTLFLNGEKEYMPWQAALSSLSYFSLMFDRSEVYGPMKKYLRKQVEPLFQHFETLTKNWTERPENLMDQYSEINAISTACSNGLPQCENLAKTLFDQWMSDPENNPIHPNLRSTIYCNAIAQGGQDQWDFAWGQLQQAQLVNEADKLRSALACSNEVWLLNRYLGYTLNPDLIRKQDATSTINSIASNVIGQPLAWDFVQSNWKKLFQDYGGGSFSFSNLIQGVTRRFSSEFELQQLEQFKKNNMDVGFGSGTRALEQALEKTKANIKWVKENKEVVLNWFIEHS
# B2: peptide F4ad 200–218 [modified: FITC-Ahx on the N-terminus; FITC-Ahx on the N-terminus] [Escherichia coli] / porcine aminopeptidase N (APN), His-tagged whole protein [porcine] (parent complex)
# chain 1: ARTELFGSLSKNDILGQIQ
# chain 2: B1 chain 2
# B3: peptide F4ac 200–218 [modified: FITC-Ahx on the N-terminus; FITC-Ahx on the N-terminus] [Escherichia coli] / porcine aminopeptidase N (APN), His-tagged whole protein [porcine] (parent complex)
# chain 1: TKLFGSLSRNDILGQIQRV
# chain 2: B1 chain 2
# Variants of: B1
# Assay: ELISA; parent: 30; read off a plot
row,Variant,response
1,chain 1 G12A,~28 relative value APN/PBS at 450 nm

# Variants of: B2
# Assay: ELISA; parent: 55; read off a plot
row,Variant,response
1,chain 1 A1E,~53 relative value APN/PBS at 450 nm

# Variants of: B3
# Assay: ELISA; parent: 29; read off a plot
row,Variant,response
1,chain 1 R18A,~6.5 relative value APN/PBS at 450 nm
2,chain 1 N10A,~15 relative value APN/PBS at 450 nm
3,chain 1 L13A,~13 relative value APN/PBS at 450 nm
4,chain 1 K2A,~48 relative value APN/PBS at 450 nm
5,chain 1 S8A,~27 relative value APN/PBS at 450 nm
6,chain 1 L7A,~6.5 relative value APN/PBS at 450 nm
7,chain 1 G5A,~20 relative value APN/PBS at 450 nm
8,chain 1 G14A,~6.5 relative value APN/PBS at 450 nm
9,chain 1 L3A,~73 relative value APN/PBS at 450 nm
